Data published in patent US20240261333A1 (published 2024).

T1: TMEM59 (UniProt Q9BXS4 36-323, limits assumed)
T1 construct: also called NP_001291972.1
T1 sequence (looked up): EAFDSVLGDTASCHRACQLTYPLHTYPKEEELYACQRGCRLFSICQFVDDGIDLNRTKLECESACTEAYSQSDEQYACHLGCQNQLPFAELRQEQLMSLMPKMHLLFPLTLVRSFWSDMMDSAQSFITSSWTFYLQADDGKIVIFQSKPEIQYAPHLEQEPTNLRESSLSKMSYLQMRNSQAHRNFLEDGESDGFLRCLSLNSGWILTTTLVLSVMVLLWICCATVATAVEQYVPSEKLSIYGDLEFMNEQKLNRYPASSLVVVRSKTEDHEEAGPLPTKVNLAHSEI

T2: ARG1 (UniProt P05089 1-322)
T2 construct: also called NP_000036.2 (+1)
T2 sequence (looked up): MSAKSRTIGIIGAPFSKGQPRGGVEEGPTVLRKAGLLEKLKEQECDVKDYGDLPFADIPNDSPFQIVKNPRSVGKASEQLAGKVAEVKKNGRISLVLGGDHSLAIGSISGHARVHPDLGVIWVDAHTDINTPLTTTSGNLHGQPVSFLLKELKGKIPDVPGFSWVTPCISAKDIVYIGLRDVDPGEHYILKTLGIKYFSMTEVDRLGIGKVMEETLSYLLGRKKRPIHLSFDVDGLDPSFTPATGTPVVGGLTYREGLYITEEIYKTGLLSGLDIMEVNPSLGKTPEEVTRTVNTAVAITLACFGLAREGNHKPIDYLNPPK

T3: POF1B (UniProt Q8WVV4-1 1-595, limits assumed)
T3 construct: also called NP_001294869.1 (+2)
T3 sequence (looked up): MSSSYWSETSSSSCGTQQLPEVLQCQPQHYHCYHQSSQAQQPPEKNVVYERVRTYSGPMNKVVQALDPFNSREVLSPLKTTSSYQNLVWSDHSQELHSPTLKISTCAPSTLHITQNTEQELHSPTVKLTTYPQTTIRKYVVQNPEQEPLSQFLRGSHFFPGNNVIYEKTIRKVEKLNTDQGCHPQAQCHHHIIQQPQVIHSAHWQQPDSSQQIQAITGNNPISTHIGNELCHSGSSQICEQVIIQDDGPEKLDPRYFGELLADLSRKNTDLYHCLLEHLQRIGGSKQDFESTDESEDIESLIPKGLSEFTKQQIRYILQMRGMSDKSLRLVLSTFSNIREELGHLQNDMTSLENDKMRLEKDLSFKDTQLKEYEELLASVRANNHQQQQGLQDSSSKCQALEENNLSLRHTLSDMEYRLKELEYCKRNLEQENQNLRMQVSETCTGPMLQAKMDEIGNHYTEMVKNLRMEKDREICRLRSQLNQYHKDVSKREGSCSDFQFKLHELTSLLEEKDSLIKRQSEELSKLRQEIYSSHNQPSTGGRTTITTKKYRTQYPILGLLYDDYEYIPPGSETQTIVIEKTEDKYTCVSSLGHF

T4: EMD (UniProt P50402 1-254)
T4 construct: also called NP_000108.1
T4 sequence (looked up): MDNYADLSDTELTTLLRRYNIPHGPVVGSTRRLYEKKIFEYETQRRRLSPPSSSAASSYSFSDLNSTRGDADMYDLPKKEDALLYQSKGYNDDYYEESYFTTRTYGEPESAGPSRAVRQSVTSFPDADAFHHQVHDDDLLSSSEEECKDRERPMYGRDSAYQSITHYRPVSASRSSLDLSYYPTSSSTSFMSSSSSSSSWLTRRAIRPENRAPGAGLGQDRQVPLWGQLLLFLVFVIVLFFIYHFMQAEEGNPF

T5: CDSN (UniProt Q15517 33-529, limits assumed)
T5 construct: also called NP_001255.4
T5 sequence (looked up): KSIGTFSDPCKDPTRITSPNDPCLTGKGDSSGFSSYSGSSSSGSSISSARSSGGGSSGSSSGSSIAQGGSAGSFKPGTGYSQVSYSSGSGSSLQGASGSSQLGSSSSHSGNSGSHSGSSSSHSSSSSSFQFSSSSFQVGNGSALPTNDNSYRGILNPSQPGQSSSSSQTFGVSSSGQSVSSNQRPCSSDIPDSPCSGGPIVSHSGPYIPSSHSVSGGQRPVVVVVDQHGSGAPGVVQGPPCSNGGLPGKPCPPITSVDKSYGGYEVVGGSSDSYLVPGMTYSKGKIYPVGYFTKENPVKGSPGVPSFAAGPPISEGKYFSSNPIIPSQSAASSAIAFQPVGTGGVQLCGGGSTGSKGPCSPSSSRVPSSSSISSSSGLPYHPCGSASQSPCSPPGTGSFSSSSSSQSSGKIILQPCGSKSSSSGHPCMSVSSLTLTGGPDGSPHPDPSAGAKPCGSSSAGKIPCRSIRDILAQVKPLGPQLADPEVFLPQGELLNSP

T6: SPRR2E (UniProt P22531 1-72)
T6 construct: Protein found in the co-IP by mass spectrometry; also called NP_001019380.2
T6 sequence (looked up): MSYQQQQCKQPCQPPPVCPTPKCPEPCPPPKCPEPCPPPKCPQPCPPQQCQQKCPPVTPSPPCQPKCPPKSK

T7: S100A9 (UniProt P06702 1-114)
T7 construct: Protein found in the co-IP by mass spectrometry; also called NP_002956.1
T7 sequence (looked up): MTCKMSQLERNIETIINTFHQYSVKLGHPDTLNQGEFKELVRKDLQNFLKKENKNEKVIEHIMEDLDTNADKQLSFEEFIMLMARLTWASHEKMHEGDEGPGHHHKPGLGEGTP

T8: S100A8 (UniProt P05109 1-93)
T8 construct: Protein found in the co-IP by mass spectrometry; also called NP_002955.2
T8 sequence (looked up): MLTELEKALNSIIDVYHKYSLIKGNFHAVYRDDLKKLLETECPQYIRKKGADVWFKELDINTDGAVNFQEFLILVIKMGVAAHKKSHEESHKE

B1: C-terminal FLAG tagged B3GNT2 (enzyme, human, UniProt Q9NY97 1-397, looked up)
chain: MSVGRRRIKLLGILMMANVFIYFIMEVSKSSSQEKNGKGEVIIPKEKFWKISTPPEAYWNREQEKLNRQYNPILSMLTNQTGEAGRLSNISHLNYCEPDLRVTSVVTGFNNLPDRFKDFLLYLRCRNYSLLIDQPDKCAKKPFLLLAIKSLTPHFARRQAIRESWGQESNAGNQTVVRVFLLGQTPPEDNHPDLSDMLKFESEKHQDILMWNYRDTFFNLSLKEVLFLRWVSTSCPDTEFVFKGDDDVFVNTHHILNYLNSLSKTKAKDLFIGDVIHNAGPHRDKKLKYYIPEVVYSGLYPPYAGGGGFLYSGHLALRLYHITDQVHLYPIDDVYTGMCLQKLGLVPEKHKGFRTFDIEEKNKNNICSYVDLMLVHSRKPQEMIDIWSQLQSAHLKC
notes: Bait of the co-IP; pulled down with mouse anti-FLAG from cell lysate; also called C-FLAG B3GNT2; C-term flag; not shown: FLAG tag at the C-terminus
B2: C-terminal FLAG tagged B3GNT2 (enzyme, human, UniProt Q9NY97 1-397, looked up)
chain: B1 chain
notes: FLAG-tagged ORF overexpressed in cells; bait of the anti-FLAG co-IP; also called C-FLAG B3GNT2; C-term flag; not shown: FLAG tag at the C-terminus

Legend:
TMEM59 = target: T1, TMEM59; experiment: co-IP, anti-FLAG, C-FLAG B3GNT2 cell lysate, mass spectrometry
Description: (§1) Cells were plated in 10-cm cell culture dishes and grown to 60-80% confluency. For each condition, two biological replicates were harvested for co-IP. Cells were washed with PBS and 4 mL of lysis buffer (20 mM HEPES, 1% Triton X-100, 150 mM NaCl, 1 mM EDTA, and 10% glycerol) containing protease inhibitor cocktail was added. Cells were scraped and lysate was incubated at 4° C. under rotary agitation for 1 h. Lysate was centrifuged at 14,000×g for 10 min at 4° C. Supernatant was transferred to a new tube and an aliquot was taken as the input. […] For Western blots, 10 μg/mL Chicken Anti-FLAG (Aves labs ET-DY100) and IgY control (R&D Systems AB-101-C) antibodies were biotinylated (Thermo Fisher Scientific 90407) and added to the respective conditions. Lysates with antibodies were incubated at 4° C. under rotary agitation overnight. For each mL of lysate, 50 μL of Pierce Protein A/G Magnetic Beads (Mass spectrometry; Thermo Fisher Scientific 88803) or Pierce Streptavidin Magnetic Beads (Western blot; Thermo Fisher Scientific 88817) was washed twice with lysis buffer. Lysates with antibodies were added to the beads and incubated at 4° C. under rotary agitation for 4 h. Beads were washed with lysis buffer 3 times and resuspended in lysis buffer for storage.
(§2) Magnetic beads were resuspended in 100 mM Tris pH 7.8, reduced, alkylated and digested with trypsin at 37° ° C. overnight. This solution was subjected to solid phase extraction to concentrate the peptides and remove unwanted reagents followed by injection onto a Shimadzu HPLC with fraction collector. Eight fractions were collected and after concentration were injected on a Waters NanoAcquity HPLC equipped with a self-packed Aeris 3 μm C18 analytical column 0.075 mm by 20 cm, (Phenomenex). Peptides were eluted using standard reverse-phase gradients. The effluent from the column was analyzed using a Thermo Orbitrap Elite mass spectrometer (nanospray configuration) operated in a data dependent manner for 54 minutes. The resulting fragmentation spectra were correlated against the known database using Proteome Discover 1.4 (Thermo Fisher Scientific).

RPS2 = RPS2 (UniProt P15880 2-293); experiment: as above
Description: as §1, §2

ARG1 = target: T2, ARG1; experiment: as above
Description: as §1, §2

RPS13 = RPS13 (UniProt P62277 2-151); experiment: as above
Description: as §1, §2

RPS18 = RPS18 (UniProt P62269 2-152); experiment: as above
Description: as §1, §2

POF1B = target: T3, POF1B; experiment: as above
Description: as §1, §2

EMD = target: T4, EMD; experiment: as above
Description: as §1, §2

CDSN = target: T5, CDSN; experiment: as above
Description: as §1, §2

DEFA3 = target: T9, DEFA3 (UniProt P59666 65-94, limits assumed); experiment: as above
T9 construct: also called NP_005208.1 (+1)
T9 sequence (P59666 65-94 limits assumed): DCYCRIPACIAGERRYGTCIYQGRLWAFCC
Description: as §1, §2

CFL1 = target: T10, CFL1 (UniProt P23528 2-166); experiment: as above
T10 construct: also called NP_005498.1
T10 sequence (P23528 2-166 limits assumed): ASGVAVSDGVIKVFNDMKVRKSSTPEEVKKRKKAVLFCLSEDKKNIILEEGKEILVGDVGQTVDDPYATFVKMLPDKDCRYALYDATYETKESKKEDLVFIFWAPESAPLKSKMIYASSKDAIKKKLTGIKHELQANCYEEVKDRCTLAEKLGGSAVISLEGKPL
Description: as §1, §2

RPS23 = RPS23 (UniProt P62266 2-143); experiment: as above
Description: as §1, §2

SPRR2E = target: T6, SPRR2E; experiment: co-IP with anti-FLAG, mass spectrometry; C-FLAG B3GNT2
Description: as §1, §2

RPS17 = RPS17 (UniProt P08708 2-135); experiment: as above
Description: as §1, §2

TRIM21 = target: T11, TRIM21 (UniProt P19474 1-475); experiment: as above
T11 construct: Endogenous protein found in the co-IP by mass spectrometry; also called NP_003132.2
T11 sequence (P19474 whole entry): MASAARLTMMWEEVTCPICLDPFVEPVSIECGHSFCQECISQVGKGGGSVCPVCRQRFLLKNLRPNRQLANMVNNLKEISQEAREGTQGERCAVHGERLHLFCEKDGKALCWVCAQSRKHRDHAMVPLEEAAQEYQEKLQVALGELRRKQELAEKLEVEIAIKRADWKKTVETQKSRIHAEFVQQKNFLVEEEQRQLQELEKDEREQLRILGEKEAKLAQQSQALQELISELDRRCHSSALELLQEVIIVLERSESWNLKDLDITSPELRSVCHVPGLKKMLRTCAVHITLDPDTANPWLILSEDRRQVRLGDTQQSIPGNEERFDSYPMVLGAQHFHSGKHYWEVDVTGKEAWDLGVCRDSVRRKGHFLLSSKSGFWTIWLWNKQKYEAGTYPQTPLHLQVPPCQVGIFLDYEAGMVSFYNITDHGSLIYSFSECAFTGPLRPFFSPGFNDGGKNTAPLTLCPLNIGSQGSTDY
Description: as §1, §2

AHNAK = target: T12, AHNAK (UniProt Q09666 1-5890); experiment: as above
T12 construct: Endogenous protein found in the co-IP by mass spectrometry; also called NP_001611.1
Description: as §1, §2

RPS11 = RPS11 (UniProt P62280 2-158); experiment: as above
Description: as §1, §2

PPIA = target: T13, PPIA (UniProt P62937 2-165); experiment: as above
T13 construct: Endogenous protein found in the co-IP by mass spectrometry; also called NP_066953.1
T13 sequence (P62937 2-165 limits assumed): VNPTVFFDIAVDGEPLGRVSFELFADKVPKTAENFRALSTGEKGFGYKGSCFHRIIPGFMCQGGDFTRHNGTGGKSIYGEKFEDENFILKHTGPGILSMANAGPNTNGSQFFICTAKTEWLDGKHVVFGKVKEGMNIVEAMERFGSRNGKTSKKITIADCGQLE
Description: as §1, §2

S100A9 = target: T7, S100A9; experiment: as above
Description: as §1, §2

ENO1 = target: T14, ENO1 (UniProt P06733 2-434); experiment: as above
T14 construct: Endogenous protein found in the co-IP by mass spectrometry; also called NP_001419.1
T14 sequence (P06733 2-434 limits assumed): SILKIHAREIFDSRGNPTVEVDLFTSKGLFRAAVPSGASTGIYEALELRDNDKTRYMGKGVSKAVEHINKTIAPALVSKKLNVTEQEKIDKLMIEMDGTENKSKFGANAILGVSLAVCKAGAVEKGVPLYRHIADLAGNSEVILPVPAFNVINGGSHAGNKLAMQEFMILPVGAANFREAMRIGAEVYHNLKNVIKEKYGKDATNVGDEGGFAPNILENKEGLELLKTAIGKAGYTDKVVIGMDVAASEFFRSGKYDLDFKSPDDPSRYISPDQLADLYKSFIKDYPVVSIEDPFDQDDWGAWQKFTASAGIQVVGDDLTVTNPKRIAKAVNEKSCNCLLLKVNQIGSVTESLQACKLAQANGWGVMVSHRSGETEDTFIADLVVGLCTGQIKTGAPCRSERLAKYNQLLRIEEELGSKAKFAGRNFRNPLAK
Description: as §1, §2

S100A8 = target: T8, S100A8; experiment: as above
Description: as §1, §2

| Binder | co-IP mass spectrometry count (TMEM59) | co-IP mass spectrometry count (RPS2) | co-IP mass spectrometry count (ARG1) | co-IP mass spectrometry count (RPS13) | co-IP mass spectrometry count (RPS18) | co-IP mass spectrometry count (POF1B) | co-IP mass spectrometry count (EMD) | co-IP mass spectrometry count (CDSN) | co-IP mass spectrometry count (DEFA3) | co-IP mass spectrometry count (CFL1) | co-IP mass spectrometry count (RPS23) | co-IP mass spectrometry count (SPRR2E) | co-IP mass spectrometry count (RPS17) | co-IP mass spectrometry count (TRIM21) | co-IP mass spectrometry count (AHNAK) | co-IP mass spectrometry count (RPS11) | co-IP mass spectrometry count (PPIA) | co-IP mass spectrometry count (S100A9) | co-IP mass spectrometry count (ENO1) | co-IP mass spectrometry count (S100A8) |
| --- | --- | --- | --- | --- | --- | --- | --- | --- | --- | --- | --- | --- | --- | --- | --- | --- | --- | --- | --- | --- |
| B1 | 0 | 24 | 6 | 4 | 18 | 0 | 2 | 0 | 8 | 6 | 16 |  |  |  |  |  |  |  |  |  |
| B2 |  |  |  |  |  |  |  |  |  |  |  | 0 | 10 | 0 | 2 | 18 | 0 | 9 | 4 | 3 |
